Test results reported in ChEMBL document CHEMBL1156423.

Tested on: O=C(O)P(=O)(O)O
Settings: Human immunodeficiency virus 1
Description: Inhibition of HIV1 reverse transcriptase E89K mutant mediated single strand incorporation into DNA at +16 position using polypurine tract PPT+16/PPT57 template after 7 mins by gel based assay

**Q.** How did the kcat/Km turn out when “Human immunodeficiency virus type 1 reverse transcriptase (Human immunodeficiency virus 1) (from UniProt Q72547) E89K” was run?
**A.** 6000 M⁻¹ s⁻¹
